# According to the supplement of paper PMC10724198:
# ± gives the standard deviation of the averaged measurements.
# What was measured:
# Saccharomyces cerevisiae [1] = experiment: protein stability index of tFT-peptide fusion (C-terminal peptide) (PSI (0-1 scale)); higher = more stable (slower turnover); settings: genetic background: wild type; temperature: 30 C
# Saccharomyces cerevisiae [2] = experiment: as above
# Experimental: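 MPS profiling in S. cerevisiae of the tFT-X12 degron library: putative degron peptides plus stable controls, 12 aa, fused to the C-terminus of a sfGFP-mCherry timer. Cells are FACS-sorted into 8 mCherry/sfGFP bins and deep-sequenced. PSI runs from 0 (unstable) to 1 (stable). Backgrounds are wild type, das1Δ and doa10Δ at 30 °C, and wild type, das1Δ, cdc34-1 and cdc53-1 at 37 °C; 2-3 technical replicates each.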
# [3] = genetic background: cdc34-1, temperature: 37 C
# [4] = genetic background: cdc53-1, temperature: 37 C
# [5] = genetic background: das1 deletion, temperature: 30 C
# [6] = genetic background: das1 deletion, temperature: 37 C
# [7] = genetic background: doa10 deletion, temperature: 30 C
# [8] = genetic background: wild type, temperature: 30 C
# [9] = genetic background: wild type, temperature: 37 C
# 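Note: PSI is a weighted mean of sequencing reads over stability bins, variants kept only with over 10 reads, mCherry proximal and sfGFP distal, peptide attached via GGGS linker.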
Sequence,protein stability index (Saccharomyces cerevisiae [1]),protein stability index (Saccharomyces cerevisiae [2]; [3]),protein stability index (Saccharomyces cerevisiae [2]; [4]),protein stability index (Saccharomyces cerevisiae [2]; [5]),protein stability index (Saccharomyces cerevisiae [2]; [6]),protein stability index (Saccharomyces cerevisiae [2]; [7]),protein stability index (Saccharomyces cerevisiae [2]; [8]),protein stability index (Saccharomyces cerevisiae [2]; [9])
IPFRRCFWFFWV,0.2345 ± 0.0012,0.537 ± 0.029,0.7 ± 0.011,0.593 ± 0.035,0.6909 ± 0.0044,0.143 ± 0.014,0.167 ± 0.024,0.204 ± 0.027
ISSYKFLRIVLV,0.189 ± 0.0046,0.384 ± 0.01,0.435 ± 0.0053,0.335 ± 0.026,0.509 ± 0.022,0.131 ± 0.031,0.149 ± 0.032,0.191 ± 0.0035
ISVSFSVIFFLL,0.154 ± 0.044,0.266 ± 0.0073,0.398 ± 0.019,0.372 ± 0.019,0.4778 ± 0.0024,0.0751 ± 0.0046,0.0951 ± 0.01,0.137 ± 0.002
IWIRLGSENTVI,0.443 ± 0.22,0.7085 ± 0.0014,0.7221 ± 0.007,0.646 ± 0.036,0.7489 ± 0.00087,0.672 ± 0.026,0.653 ± 0.032,0.78 ± 0.015
IWWFKELRVCRV,0.49 ± 0.013,0.506 ± 0.014,0.559 ± 0.013,0.435 ± 0.022,0.5589 ± 0.0019,0.4128 ± 0.0013,0.424 ± 0.024,0.539 ± 0.017
IYFFFFALHFPN,0.524 ± 0.067,0.498 ± 0.083,0.521 ± 0.013,0.366 ± 0.054,0.535 ± 0.029,0.388 ± 0.019,0.407 ± 0.025,0.544 ± 0.047
KAIILGNIKINF,0.539 ± 0.16,0.729 ± 0.018,0.744 ± 0.016,0.6368 ± 0.0023,0.714 ± 0.011,0.638 ± 0.026,0.624 ± 0.018,0.741 ± 0.045
KALFPGLLLCAF,0.307 ± 0.014,0.168 ± 0.0027,0.188 ± 0.0038,0.239 ± 0.02,0.292 ± 0.012,0.204 ± 0.0091,0.232 ± 0.022,0.268 ± 0.017
KLLDHFVKIRVY,0.0988 ± 0.0069,0.164 ± 0.021,0.2 ± 0.0077,0.225 ± 0.044,0.416 ± 0.0072,0.0632 ± 0.0066,0.0674 ± 0.024,0.0534 ± 0.03
KLRELQVRQQLS,0.382 ± 0.02,0.648 ± 0.1,0.677 ± 0.015,0.635 ± 0.03,0.7272 ± 0.0049,0.189 ± 0.021,0.199 ± 0.025,0.413 ± 0.017
LAEHIFLVLDHG,0.453 ± 0.013,0.451 ± 0.026,0.485 ± 0.013,0.428 ± 0.0085,0.499 ± 0.0062,0.463 ± 0.024,0.432 ± 0.0071,0.478 ± 0.0089
LAISTIQMFKRI,0.38 ± 0.019,0.677 ± 0.049,0.718 ± 0.04,0.624 ± 0.017,0.718 ± 0.018,0.295 ± 0.021,0.327 ± 0.022,0.568 ± 0.038
LAKPTVRKIICV,0.419 ± 0.007,0.41 ± 0.0086,0.387 ± 0.025,0.301 ± 0.049,0.4672 ± 0.0038,0.263 ± 0.017,0.296 ± 0.04,0.421 ± 0.0089
LAPSRNRSVWLV,0.247 ± 0.036,0.591 ± 0.015,0.7308 ± 0.002,0.649 ± 0.016,0.74 ± 0.0098,0.104 ± 0.012,0.119 ± 0.018,0.199 ± 0.0086
LASFCSVCIFIS,0.163 ± 0.029,0.224 ± 0.0054,0.31 ± 0.014,0.238 ± 0.017,0.429 ± 0.0071,0.099 ± 0.0025,0.127 ± 0.033,0.17 ± 0.012
LASWVVFIWFLW,0.329 ± 0.077,0.253 ± 0.026,0.348 ± 0.012,0.278 ± 0.018,0.41 ± 0.01,0.281 ± 0.031,0.25 ± 0.043,0.423 ± 0.041
LCFLVALASMLF,0.504 ± 0.01,0.5426 ± 0.0019,0.579 ± 0.038,0.472 ± 0.036,0.549 ± 0.018,0.4385 ± 0.0032,0.462 ± 0.026,0.5246 ± 0.00074
LCFVCLWGYLGV,0.479 ± 0.044,0.388 ± 0.023,0.471 ± 0.011,0.322 ± 0.034,0.528 ± 0.023,0.307 ± 0.0054,0.323 ± 0.022,0.4791 ± 0.0038
LCFVFVLGFFAF,0.421 ± 0.017,0.379 ± 0.058,0.4836 ± 0.0019,0.349 ± 0.031,0.488 ± 0.0085,0.319 ± 0.011,0.334 ± 0.012,0.501 ± 0.022
LCTCFLVLLLWC,0.337 ± 0.1,0.387 ± 0.032,0.404 ± 0.02,0.339 ± 0.024,0.46 ± 0.01,0.34 ± 0.01,0.315 ± 0.018,0.4407 ± 0.0027

Sequence,protein stability index (Saccharomyces cerevisiae [1]),protein stability index (Saccharomyces cerevisiae [2]; [3]),protein stability index (Saccharomyces cerevisiae [2]; [4]),protein stability index (Saccharomyces cerevisiae [2]; [5]),protein stability index (Saccharomyces cerevisiae [2]; [6]),protein stability index (Saccharomyces cerevisiae [2]; [7]),protein stability index (Saccharomyces cerevisiae [2]; [8]),protein stability index (Saccharomyces cerevisiae [2]; [9])
LCVFRFFLFFFL,0.402 ± 0.054,0.35 ± 0.012,0.371 ± 0.034,0.327 ± 0.032,0.461 ± 0.012,0.364 ± 0.019,0.291 ± 0.027,0.427 ± 0.016
LDFPPLRLILRL,0.538 ± 0.064,0.601 ± 0.019,0.609 ± 0.0072,0.584 ± 0.035,0.6464 ± 0.0014,0.658 ± 0.017,0.538 ± 0.049,0.6071 ± 0.0026
LEPFTGYTVIVM,0.334 ± 0.048,0.165 ± 0.045,0.185 ± 0.015,0.232 ± 0.045,0.331 ± 0.021,0.189 ± 0.0054,0.236 ± 0.034,0.261 ± 0.032
LFDVLFVFSFIF,0.449 ± 0.045,0.4681 ± 0.0013,0.524 ± 0.006,0.413 ± 0.017,0.535 ± 0.015,0.432 ± 0.034,0.42 ± 0.024,0.503 ± 0.019
LFFASFLLIGPF,0.393 ± 0.0098,0.4091 ± 0.0033,0.4803 ± 0.003,0.375 ± 0.039,0.499 ± 0.014,0.354 ± 0.03,0.321 ± 0.037,0.483 ± 0.041
LFFFFLPHLILL,0.377 ± 0.035,0.3403 ± 0.00055,0.321 ± 0.041,0.321 ± 0.046,0.4803 ± 0.004,0.404 ± 0.058,0.26 ± 0.028,0.395 ± 0.011
LFHPPSFSLRLF,0.528 ± 0.25,0.681 ± 0.038,0.738 ± 0.025,0.678 ± 0.019,0.748 ± 0.023,0.301 ± 0.038,0.348 ± 0.025,0.5619 ± 0.0044
LFHVWSLRFFWL,0.391 ± 0.023,0.576 ± 0.039,0.669 ± 0.017,0.557 ± 0.018,0.6837 ± 0.0039,0.2583 ± 0.00064,0.282 ± 0.027,0.434 ± 0.015
LFLFVGCSVRRL,0.4951 ± 0.0047,0.528 ± 0.023,0.58092 ± 0.00029,0.392 ± 0.034,0.599 ± 0.021,0.374 ± 0.0049,0.391 ± 0.014,0.5744 ± 0.0024
LFLLYVLVSLFV,0.281 ± 0.045,0.288 ± 0.019,0.347 ± 0.064,0.267 ± 0.048,0.369 ± 0.019,0.222 ± 0.0045,0.251 ± 0.025,0.39 ± 0.052
LFLVVVVRAGGF,0.293 ± 0.0094,0.144 ± 0.042,0.288 ± 0.058,0.214 ± 0.03,0.4065 ± 0.0012,0.187 ± 0.0076,0.208 ± 0.022,0.382 ± 0.045
LFPVASLCLART,0.529 ± 0.065,0.643 ± 0.028,0.648 ± 0.048,0.527 ± 0.036,0.663 ± 0.0042,0.513 ± 0.022,0.524 ± 0.023,0.659 ± 0.057
LFRFVFLLFGFW,0.446 ± 0.049,0.452 ± 0.019,0.428 ± 0.025,0.435 ± 0.015,0.566 ± 0.032,0.4885 ± 0.0013,0.423 ± 0.034,0.526 ± 0.026
LFRNIFLFVFLI,0.306 ± 0.029,0.267 ± 0.029,0.229 ± 0.0072,0.362 ± 0.021,0.468 ± 0.012,0.334 ± 0.0071,0.241 ± 0.02,0.307 ± 0.016
LFWTWVLVGVSV,0.256 ± 0.028,0.1462 ± 0.0014,0.176 ± 0.029,0.192 ± 0.022,0.283 ± 0.013,0.127 ± 0.0013,0.164 ± 0.015,0.263 ± 0.033
LGATYSVQLYVS,0.131 ± 0.0029,0.336 ± 0.044,0.577 ± 0.022,0.539 ± 0.038,0.621 ± 0.013,0.0746 ± 0.012,0.0832 ± 0.015,0.0856 ± 0.005
LGIPKLLCFVCT,0.386 ± 0.019,0.424 ± 0.011,0.432 ± 0.0061,0.304 ± 0.023,0.465 ± 0.02,0.248 ± 0.0065,0.29 ± 0.019,0.421 ± 0.017
LGLCFFFYSLHS,0.462 ± 0.0096,0.539 ± 0.064,0.58 ± 0.037,0.411 ± 0.041,0.586 ± 0.013,0.37 ± 0.0054,0.401 ± 0.016,0.599 ± 0.057
LGNVTDVMHRLS,0.48 ± 0.0083,0.645 ± 0.038,0.739 ± 0.0094,0.6481 ± 0.0036,0.734 ± 0.023,0.328 ± 0.0097,0.379 ± 0.012,0.617 ± 0.012
